{
  "source": "paper PMC3760383",
  "binders": {"B1": {"name": "p53 consensus 20-mer (dsDNA)", "DNA 1": "GGACATGCCCGGGCATGTCC", "DNA 2": "GGACATGCCCGGGCATGTCC"}},
  "assay_in_all_cases": "EMSA",
  "key": {"IFI16 HIN-A": {"biological_target": "IFI16 HIN-A (Homo sapiens, UniProt Q16666-2 192-393)", "sequence (Q16666 192-393)": "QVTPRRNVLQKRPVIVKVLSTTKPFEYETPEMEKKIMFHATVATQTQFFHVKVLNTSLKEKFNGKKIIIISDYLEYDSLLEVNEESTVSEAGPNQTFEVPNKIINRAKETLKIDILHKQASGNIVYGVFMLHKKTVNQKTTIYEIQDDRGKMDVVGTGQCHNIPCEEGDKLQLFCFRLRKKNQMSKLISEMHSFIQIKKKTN"}, "p53 (82-360);IFI16 HIN-B": {"biological_target": "p53 (82-360);IFI16 HIN-B (Homo sapiens;Homo sapiens, UniProt P04637;Q16666-2 82-360;515-710, |)"}, "p53 (82-393);IFI16 HIN-A": {"biological_target": "p53 (82-393);IFI16 HIN-A (Homo sapiens;Homo sapiens, UniProt P04637;Q16666-2 82-393;192-393, |)"}},
  "data": [
    {"binder": "B1", "values": [
      {"measurement": "binding result", "setting": "IFI16 HIN-A", "value": "no binding"},
      {"measurement": "binding result", "setting": "p53 (82-360);IFI16 HIN-B", "value": "binds"},
      {"measurement": "binding result", "setting": "p53 (82-393);IFI16 HIN-A", "value": "binds"}
    ]}
  ]
}
